Experimental findings from paper PMC9407945 (Science immunology, 2022) are described below.

B1: SW186 Fab (Fab, V domains shown)
VH: QVQLQQSGAELVKPGASVKISCKASGVAFSSYWMNWVKQRPGKGLEWIGQIYPGDGDTNYNGKFKGKATLTADKSSSTAYMQLSSLSSEDSAVYFCARGFIATVEETMDYWGQGTSVTVSS
VL: DIQMTQTTSSLSASLGDRVTISCRASQDISNYLNWYQQKPDGTVKLLIYYTSRLHSGVPSRFSGSGSGTDYSLTISNLEQEDIATYFCQQSHTLPWTFGGGTKLEIK
B2: humanized SW186 H3L3 (antibody, V domains shown)
VH: QVQLVQSGAEVKKPGSSVKVSCKASGVAFSSYWMNWVRQAPGQGLEWIGQIYPGDGDTNYNGKFKGRATITADKSTSTAYMELSSLRSEDTAVYFCARGFIATVEETMDYWGQGTLVTVSS
VL: DIQMTQSPSSLSASVGDRVTITCRASQDISNYLNWYQQKPGKAPKLLIYYTSRLHSGVPSRFSGSGSGTDYTLTISSLQPEDFATYFCQQSHTLPWTFGGGTKLEIK
B3: humanized SW186 H1L2 (antibody, V domains shown)
VH: QVQLVQSGAEVKKPGSSVKVSCKASGVAFSSYWMNWVRQAPGQGLEWMGQIYPGDGDTNYNGKFKGRVTITADKSTSTAYMELSSLRSEDTAVYYCARGFIATVEETMDYWGQGTLVTVSS
VL: DIQMTQSPSSLSASVGDRVTITCRASQDISNYLNWYQQKPGKAPKLLIYYTSRLHSGVPSRFSGSGSGTDFTLTISSLQPEDFATYFCQQSHTLPWTFGGGTKLEIK
B4: humanized SW186 H3L4 (antibody, V domains shown)
VH: QVQLVQSGAEVKKPGSSVKVSCKASGVAFSSYWMNWVRQAPGQGLEWIGQIYPGDGDTNYNGKFKGRATITADKSTSTAYMELSSLRSEDTAVYFCARGFIATVEETMDYWGQGTLVTVSS
VL: DIQMTQSPSSLSASVGDRVTITCRASQDISNYLNWYQQKPGKTVKLLIYYTSRLHSGVPSRFSGSGSGTDYTLTISSLQPEDFATYFCQQSHTLPWTFGGGTKLEIK
B5: humanized SW186 H4L3 (antibody, V domains shown)
VH: QVQLVQSGAEVKKPGSSVKVSCKASGVAFSSYWMNWVKQAPGQGLEWIGQIYPGDGDTNYNGKFKGKATITADKSTSTAYMELSSLRSEDTAVYFCARGFIATVEETMDYWGQGTLVTVSS
VL: DIQMTQSPSSLSASVGDRVTITCRASQDISNYLNWYQQKPGKAPKLLIYYTSRLHSGVPSRFSGSGSGTDYTLTISSLQPEDFATYFCQQSHTLPWTFGGGTKLEIK
B6: humanized SW186 H4L4 (antibody, V domains shown)
VH: QVQLVQSGAEVKKPGSSVKVSCKASGVAFSSYWMNWVKQAPGQGLEWIGQIYPGDGDTNYNGKFKGKATITADKSTSTAYMELSSLRSEDTAVYFCARGFIATVEETMDYWGQGTLVTVSS
VL: DIQMTQSPSSLSASVGDRVTITCRASQDISNYLNWYQQKPGKTVKLLIYYTSRLHSGVPSRFSGSGSGTDYTLTISSLQPEDFATYFCQQSHTLPWTFGGGTKLEIK
B7: humanized SW186 H4L1 (antibody, V domains shown)
VH: QVQLVQSGAEVKKPGSSVKVSCKASGVAFSSYWMNWVKQAPGQGLEWIGQIYPGDGDTNYNGKFKGKATITADKSTSTAYMELSSLRSEDTAVYFCARGFIATVEETMDYWGQGTLVTVSS
VL: DIQMTQSPSSLSASVGDRVTITCRASQDISNYLNWYQQKPGKAPKLLIYYTSRLHSGVPSRFSGSGSGTDFTLTISSLQPEDFATYYCQQSHTLPWTFGGGTKLEIK
B8: humanized SW186 H4L2 (antibody, V domains shown)
VH: QVQLVQSGAEVKKPGSSVKVSCKASGVAFSSYWMNWVKQAPGQGLEWIGQIYPGDGDTNYNGKFKGKATITADKSTSTAYMELSSLRSEDTAVYFCARGFIATVEETMDYWGQGTLVTVSS
VL: DIQMTQSPSSLSASVGDRVTITCRASQDISNYLNWYQQKPGKAPKLLIYYTSRLHSGVPSRFSGSGSGTDFTLTISSLQPEDFATYFCQQSHTLPWTFGGGTKLEIK

The target of the experiment is SARS-CoV-2 spike ectodomain (S-ecto), Wuhan-hu-1, 2P (SARS-CoV-2, Wuhan-hu-1, UniProt P0DTC2, 2P mutation at residues 986 and 987, biotinylated (EZ-link NHS-sulfo-LC-Biotin) for the BLI assay). In words: BLI. Particulars: both partners purified.
For orientation: Kd means the concentration at which binding is half-saturated. Read a low Kd as tighter binding. For the molecule B1, the Kd is 1.09 nM.
The molecule B2 showed a Kd of 5.82 nM.
Then B3, with 26.2 nM; and B4, with 2.6 nM.
In turn, B5 yielded a Kd of 2.4 nM.
In turn, B6 displayed a Kd of 1.57 nM.
Molecule B7 displayed a Kd of 4.14 nM.
B8 had a Kd of 5.86 nM.
